The target of experiment [1] is K1058, paralogous MurNAc kinase of Tannerella forsythia (Tannerella forsythia). Description: SEC; SD200 16/60 column, 4 °C; MurK in 200 mM NaCl, 50 mM MES, pH 6; K1058 in 750 mM NaCl, 25 mM Tris-HCl, pH 8.5; apparent mass about 60 kDa against 32.4 and 32.3 kDa for the monomers. For orientation: Size exclusion chromatography separates by hydrodynamic size, large species first.

Experiment [2] has as its target Tannerella forsythia ATP-dependent murein sugar kinase (MurK) (Tannerella forsythia). Described as above.

As a reminder, the stoichiometry N is a count of units in the complex or per binding partner.

Take “K1058, paralogous MurNAc kinase of Tannerella forsythia (enzyme)”: in experiment [1], the stoichiometry N came to 2. For “Tannerella forsythia ATP-dependent murein sugar kinase (MurK) (enzyme)”, in experiment [2], the stoichiometry N stood at 2.

(Values after publication PMC10465942, “N-acetylmuramic acid recognition by MurK kinase from the MurNAc auxotrophic oral pathogen Tannerella forsythia” (The Journal of Biological Chemistry, 2023).)
